The supplement of paper PMC9876800

System: peptide library, one residue held at a place counted from the S/T acceptor
Assay: relative phosphorylation of the sub-library (ratio to the mean residue at this position); higher = residue favoured
Settings: human
Method in brief: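 In 384-well plates, purified recombinant kinases (human or orthologue constructs) were incubated for 90 min under kinase-specific conditions with 50 μM biotinylated degenerate peptide sub-libraries and 50 μM ATP spiked with γ-32P-ATP. Each sub-library fixed a single residue at one position around a central Ser/Thr. Relative sub-library phosphorylation, measured by phosphorimaging and densitometry of streptavidin membrane spots, is given as a ratio to the mean residue at that position.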

AKT2, construct: Full length, sequence (P31751 whole entry, looked up): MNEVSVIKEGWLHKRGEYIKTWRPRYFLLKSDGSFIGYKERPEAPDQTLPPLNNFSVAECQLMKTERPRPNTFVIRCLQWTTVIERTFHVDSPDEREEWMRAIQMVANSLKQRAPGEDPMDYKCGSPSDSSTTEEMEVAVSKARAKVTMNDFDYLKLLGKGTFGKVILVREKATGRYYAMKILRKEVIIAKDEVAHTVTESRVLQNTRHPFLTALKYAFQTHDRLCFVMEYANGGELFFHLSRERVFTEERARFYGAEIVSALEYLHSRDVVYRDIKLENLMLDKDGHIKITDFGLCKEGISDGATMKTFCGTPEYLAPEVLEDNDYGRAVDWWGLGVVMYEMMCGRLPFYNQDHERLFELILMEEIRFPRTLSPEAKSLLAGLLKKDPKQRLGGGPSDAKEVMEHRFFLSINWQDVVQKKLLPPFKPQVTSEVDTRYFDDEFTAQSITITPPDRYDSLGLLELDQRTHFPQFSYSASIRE
BRAF, construct: aa444-721, sequence (P15056 444-721, looked up): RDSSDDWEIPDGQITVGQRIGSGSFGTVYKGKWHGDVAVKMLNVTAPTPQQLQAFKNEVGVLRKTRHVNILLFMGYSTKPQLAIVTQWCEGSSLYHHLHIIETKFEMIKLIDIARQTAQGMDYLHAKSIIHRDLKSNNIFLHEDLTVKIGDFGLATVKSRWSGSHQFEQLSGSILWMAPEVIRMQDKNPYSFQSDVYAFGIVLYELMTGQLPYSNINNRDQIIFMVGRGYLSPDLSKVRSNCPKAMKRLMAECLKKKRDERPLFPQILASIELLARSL
AKT3, construct: aa106-end, sequence (Q9Y243 106-479, looked up): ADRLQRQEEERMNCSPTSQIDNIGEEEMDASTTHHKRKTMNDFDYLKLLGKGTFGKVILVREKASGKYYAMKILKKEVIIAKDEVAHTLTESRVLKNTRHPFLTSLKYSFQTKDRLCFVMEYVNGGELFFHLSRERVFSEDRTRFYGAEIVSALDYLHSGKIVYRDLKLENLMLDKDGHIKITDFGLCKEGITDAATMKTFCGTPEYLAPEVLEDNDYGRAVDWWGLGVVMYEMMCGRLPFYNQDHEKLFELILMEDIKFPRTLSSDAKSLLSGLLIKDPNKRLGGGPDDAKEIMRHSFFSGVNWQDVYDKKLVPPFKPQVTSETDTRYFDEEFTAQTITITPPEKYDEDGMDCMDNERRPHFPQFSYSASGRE

AKT2, construct: Full length (from UniProt P31751)
relative phosphorylation
Settings	at +1	at +2	at +3	at +4	at -1	at -2	at -3	at -4	at -5
A fixed	0.789	1.29	1.06	0.923	0.951	0.988	0.523	1.15	1.09
D fixed	0.487	0.644	0.589	0.615	0.663	0.303	0.213	0.571	0.519
E fixed	0.448	0.575	0.584	0.595	0.457	0.304	0.231	0.647	0.536
F fixed	1.78	0.673	0.86	0.681	0.795	0.446	0.288	0.7	0.931
G fixed	0.854	1.36	1.27	1.23	1.16	0.615	0.351	1.19	1.05
H fixed	0.947	1.76	1.39	1.15	1.28	0.822	0.546	1.03	1.04
I fixed	1.14	0.734	0.617	0.687	0.43	0.438	0.274	0.661	0.711
K fixed	1.02	1.33	1.79	1.96	1.36	2.83	1.91	1.98	1.67
L fixed	1.11	0.872	0.859	0.736	0.772	0.784	0.29	0.797	0.838
M fixed	1.35	0.8	0.735	0.814	0.984	0.488	0.291	0.888	0.872
N fixed	1.1	1.23	0.919	1.06	1.67	0.547	0.304	0.914	0.807
P fixed	0.722	0.925	1.02	1.64	1.12	0.385	0.34	0.972	1.02
Q fixed	1.19	0.881	0.964	1.11	1.12	0.657	0.48	0.986	0.841
R fixed	1.12	1.41	1.82	1.68	1.61	6.03	10.1	2.35	2.51
V fixed	1.01	0.92	0.743	0.64	0.523	0.486	0.275	0.701	0.736
W fixed	0.972	0.723	0.888	0.705	0.737	0.437	0.294	0.674	0.907
Y fixed	0.971	0.878	0.887	0.765	1.38	0.441	0.311	0.803	0.927
pThr fixed	0.772	1.1	0.808	0.932	0.441	0.482	0.346	0.752	0.776
pTyr fixed	0.884	1.13	1.01	0.71	0.83	0.425	0.32	0.641	0.809

AKT3, construct: aa106-end (from UniProt Q9Y243)
relative phosphorylation
Settings	at +1	at +2	at +3	at +4	at -1	at -2	at -3	at -4	at -5
A fixed	0.69	1.13	0.867	0.755	0.872	0.914	0.532	1.12	1.27
D fixed	0.38	0.56	0.496	0.586	0.669	0.149	0.13	0.491	0.464
E fixed	0.326	0.385	0.465	0.496	0.35	0.142	0.138	0.558	0.437
F fixed	2.25	0.596	0.824	0.604	0.783	0.32	0.168	0.611	0.672
G fixed	0.775	1.29	1.18	1.07	1.28	0.494	0.329	1.04	1.06
H fixed	0.962	2.06	1.45	1.11	1.18	1.17	0.56	0.991	1.18
I fixed	1.29	0.723	0.938	0.691	0.245	0.274	0.131	0.515	0.577
K fixed	0.962	1.31	1.9	1.8	1.65	3.02	1.5	2.19	2.15
L fixed	1.14	0.987	0.872	0.682	0.746	0.772	0.165	0.645	0.557
M fixed	1.58	0.774	0.718	0.716	1.12	0.391	0.179	0.833	0.648
N fixed	1.01	1.15	0.911	1.02	1.81	0.373	0.241	0.843	0.734
P fixed	0.407	0.746	0.842	2.68	1.14	0.283	0.406	1.06	1.2
Q fixed	0.895	0.716	0.981	0.98	1.03	0.429	0.502	1.02	0.797
R fixed	1.09	1.82	1.86	1.54	1.63	7.37	11.4	3.08	2.97
V fixed	1.23	1.02	0.711	0.659	0.402	0.324	0.147	0.639	0.692
W fixed	0.989	0.917	1.11	0.911	0.647	0.253	0.218	0.638	0.847
Y fixed	1.04	0.812	0.87	0.697	1.46	0.326	0.222	0.727	0.752
pThr fixed	0.571	0.463	0.682	0.639	0.279	0.294	0.255	0.612	0.545
pTyr fixed	0.643	0.656	0.74	0.517	0.787	0.263	0.223	0.537	0.618

BRAF, construct: aa444-721 (from UniProt P15056)
relative phosphorylation
Settings	at +1	at +2	at +3	at +4	at -1	at -2	at -3	at -4	at -5
A fixed	0.66	0.762	0.791	0.965	1.06	1.07	1.09	0.86	1.06
D fixed	0.675	1.38	0.941	1.09	1.92	0.748	0.994	1.52	1.48
E fixed	1.3	0.94	0.898	0.966	1.36	1	1.01	1.21	1.18
F fixed	1.44	0.67	1.06	0.762	0.539	0.983	0.935	0.684	0.7
G fixed	0.592	0.644	0.953	1.15	1.05	0.572	0.752	0.953	0.991
H fixed	0.864	1.49	0.97	1.09	1.78	1.26	0.902	0.908	1.11
I fixed	1.95	1.09	1.1	0.733	0.422	1.64	0.712	0.488	0.701
K fixed	0.533	0.749	0.714	1.11	0.775	0.686	1.34	0.743	1.32
L fixed	1.22	0.773	1.25	0.842	0.609	1.05	1.51	0.596	0.762
M fixed	1.26	1.23	1.22	0.826	1.23	0.931	1.27	0.629	0.897
N fixed	0.849	1.5	1.13	1.24	1.77	0.932	0.861	0.905	1.14
P fixed	0.377	0.631	0.805	1.57	0.337	0.499	0.666	0.945	1.15
Q fixed	0.956	1.51	0.995	1	1.14	0.892	0.929	0.765	0.889
R fixed	0.673	0.848	0.902	1.08	1.17	0.839	1.46	0.629	1.06
V fixed	1.76	1.2	0.935	0.661	0.504	1.55	0.707	0.546	0.687
W fixed	0.769	0.802	1.44	1.1	0.589	1.09	1.13	3.93	1.01
Y fixed	1.12	0.776	0.898	0.813	0.775	1.25	0.725	0.69	0.859
pThr fixed	1.08	0.723	0.835	0.85	0.577	0.992	0.807	0.776	0.945
pTyr fixed	0.912	0.736	0.945	0.792	1.13	1.58	0.734	0.655	1
